Consider 5 molecules from US20230212286A1 (INNOBATION BIO, published 2023).

Where a chain is given by its changes, count along the chain named.

The experiment has as its target T1, CD22-His tag (CD22 extracellular domain; Acrobiosystems Inc.) (UniProt P20273 20-687, limits assumed).
T1 construct: extracellular domain; Bought reagent coated at 100 ng/well; also called CD22 peptide; not shown: His tag
T1 sequence (looked up): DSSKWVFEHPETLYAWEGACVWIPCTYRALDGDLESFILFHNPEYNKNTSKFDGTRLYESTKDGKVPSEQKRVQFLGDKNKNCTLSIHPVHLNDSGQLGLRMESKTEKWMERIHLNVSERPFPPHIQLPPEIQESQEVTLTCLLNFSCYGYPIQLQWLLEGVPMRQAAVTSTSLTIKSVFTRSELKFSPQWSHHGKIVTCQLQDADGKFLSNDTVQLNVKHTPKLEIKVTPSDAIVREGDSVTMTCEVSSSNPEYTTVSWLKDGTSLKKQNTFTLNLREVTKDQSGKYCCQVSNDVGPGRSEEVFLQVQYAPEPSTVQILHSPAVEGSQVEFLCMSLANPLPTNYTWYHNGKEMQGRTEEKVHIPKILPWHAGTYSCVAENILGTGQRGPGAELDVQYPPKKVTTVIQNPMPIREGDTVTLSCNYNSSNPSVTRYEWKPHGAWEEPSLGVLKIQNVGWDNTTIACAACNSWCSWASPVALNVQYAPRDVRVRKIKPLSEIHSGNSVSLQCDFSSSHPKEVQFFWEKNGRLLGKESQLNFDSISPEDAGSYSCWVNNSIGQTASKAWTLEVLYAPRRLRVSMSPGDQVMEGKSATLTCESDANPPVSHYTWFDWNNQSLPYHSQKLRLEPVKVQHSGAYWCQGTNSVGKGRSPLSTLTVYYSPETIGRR
The experiment can be described thus: ELISA, CD22-His tag coated at 100 ng/well, primary antibody 0.4 ug/ml. How it is done:
1C2, 9E9, 2A9, 2G1 and 6B3 antibodies were treated in each well, and then reacted at room temperature for 2 hours, and then washed 3 times with 1 X PBST. Secondary antibody ([…], 1:10,000) was treated and reacted at room temperature for 30 minutes, washed 3 times with 1 X PBST, and then treated with TMB for color development and reacted at room temperature for 5 minutes. Finally, the reaction was terminated by treatment with a stop solution of 1N H₂SO₄, and then the absorbance was measured at 450 nm.

B1: 9E9 antibody (antibody, V domains shown)
VH: EVQLEESGAELVRPGSSVKISCKASGYAFSIYWMNWVKQRPGQGLEWIGQIYPGDGDTNYNGKFKGKATLTADKSSSTAYMQLSSLTSEDSAVYFCARRGITPWFAYWGQGTLVTVSA
VL: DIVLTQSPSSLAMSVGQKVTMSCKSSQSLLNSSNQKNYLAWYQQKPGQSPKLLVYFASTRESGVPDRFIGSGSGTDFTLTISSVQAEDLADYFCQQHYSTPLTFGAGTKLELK
notes: Monoclonal antibody from a hybridoma, detected in FACS with goat anti-mouse IgG
On to B1, for which the OD450 measurements came to 1.76 absorbance at 450 nm.

B2: 1C2 antibody (antibody, V domains shown)
VH: QVQLQQPGAELVRPGASVKLSCKASGYTFTSYWMNWVKQRPGQGLEWIGMIDPSDSETHYNQMFKDKATLTVDKSSSTAYMQLSSLTSEDSAVYYCARWGNYDYDVWAMDYWGQGTSVTVSS
VL: DVLMTQTPLSLPVSLGDQASISCRSSQNIVHLNGNTFLEWFLQKPGQSPKLLIYKVSNRFSGVPDRFSGSGSGTDFTLKISRVEAEDLGVYYCFQGSHVPYTFGGGTKLEIK
notes: Monoclonal antibody from a hybridoma (fusion with mouse myeloma cells), detected in FACS with goat anti-mouse IgG
As for B2, the OD450 measurements was 2.43 absorbance at 450 nm.

B3: 6B3 antibody (antibody, V domains shown)
VH: EVQLQQSGPELVKPGASVKISCKASGYTFTDYNMHWVKQSHGKSLEWIGYIYPYNGGTGYKQKFKSKATLTVDNSSSTAYMELRSLTSEDSAVYYCARLYYYGRTSYWGQGTTLTVSS
VL: DIVMTQSQKFMSTSVGDRVSVTCKASQNVGTYVAWYQQKPGQSPKALIYSASYRYSGVPDRFTGSGSGTDFTLTISIVQSEDLAEYFCHQYDSYPYTFGGGTKLEIK
notes: as for B1
Take B3: the OD450 measurements was determined as 1.79 absorbance at 450 nm.

B4: 2A9 antibody (antibody, V domains shown)
VH: EVQLEESGAELVKPGASVKMSCKAFGYTFTTYPIEWMKQNHGKSLEWIGNFHPYNDDTKYNEKFKGKAKLTVEKSSSTVYLELSRLTSDDSAVYYCARGDYYVSSWYFDVWGAGTTVTVSS
VL: B3 VL with Y32N, I77N, H89Q, D92N, Y96L, G100S
notes: as for B1
The molecule B4 gave an OD450 measurements of 2.93 absorbance at 450 nm.

B5: 2G1 antibody (antibody, V domains shown)
VH: EVQLQESGPGLVAPSQSLSITCTVSGFSLTSYDISWIRQPPGKGLEWLGVIWTGGGTNYNSAFMSRLSISKDNSKSQVFLKMNSLQTDDTAIYYCVPHYYGYAMDYWGQGTSVTVSS
VL: DIVLTQSPSSLSASLGGKVTITCKASQDINKYIAWYQHKPGKGPRLLIHYTSTLQPGIPSRFSGSGSGRDYSFSISNLEPEDIATYYCLQYDNLLTFGAGTKLELK
notes: as for B1
B5 returned an OD450 measurements of 2.54 absorbance at 450 nm.
